Targets include nucleolin RRM-RGG (UniProt P19338 267-709); RRM-RGG F/A2 (UniProt P19338 267-709, F663A;F676A); RRM-RGG F/A1 (UniProt P19338 267-709, F663A); RRM-RGG F/A3 (UniProt P19338 267-709, F663A;F676A;F684A).
Assay in all cases: EMSA
(A gel shift assay detects complexes by their altered migration in electrophoresis.)

Series [1] addresses T1, nucleolin RRM (UniProt P19338 267-645).
Series [2] addresses T1, nucleolin RRM. This is another data set of the same source.

The values below come from paper PMC7081427.

In general, Kd refers to the concentration at which binding is half-saturated. A low value points to a tighter complex.

T1 sequence (P19338 267-645): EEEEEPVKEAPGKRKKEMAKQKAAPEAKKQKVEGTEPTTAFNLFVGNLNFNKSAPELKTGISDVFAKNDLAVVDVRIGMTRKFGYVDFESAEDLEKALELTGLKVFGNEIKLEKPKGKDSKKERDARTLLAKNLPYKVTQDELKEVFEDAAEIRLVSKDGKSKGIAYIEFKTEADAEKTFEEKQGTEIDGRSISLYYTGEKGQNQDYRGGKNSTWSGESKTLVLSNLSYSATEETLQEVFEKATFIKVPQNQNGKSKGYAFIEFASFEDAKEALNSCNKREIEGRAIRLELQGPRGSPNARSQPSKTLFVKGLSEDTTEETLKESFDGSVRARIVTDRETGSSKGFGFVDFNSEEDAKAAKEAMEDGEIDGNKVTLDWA
Sequence of RRM-RGG F/A1 (P19338 267-709 F663A): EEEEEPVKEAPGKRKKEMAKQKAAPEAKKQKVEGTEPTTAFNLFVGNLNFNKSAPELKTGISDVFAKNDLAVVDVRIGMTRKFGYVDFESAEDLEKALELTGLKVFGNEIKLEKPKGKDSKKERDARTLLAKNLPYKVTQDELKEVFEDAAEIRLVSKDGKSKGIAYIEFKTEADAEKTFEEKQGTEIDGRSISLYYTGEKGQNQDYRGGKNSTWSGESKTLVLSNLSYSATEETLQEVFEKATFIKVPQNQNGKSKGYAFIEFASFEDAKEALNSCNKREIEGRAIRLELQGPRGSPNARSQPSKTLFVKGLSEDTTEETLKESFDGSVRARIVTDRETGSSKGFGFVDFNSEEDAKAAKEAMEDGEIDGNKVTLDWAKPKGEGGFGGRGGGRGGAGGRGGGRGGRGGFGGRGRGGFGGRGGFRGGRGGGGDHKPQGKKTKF
Sequence of RRM-RGG F/A2 (P19338 267-709 F663A/F676A): as the sequence (P19338 267-709 F663A) above, with F410A counted along it
Sequence of nucleolin RRM-RGG (P19338 267-709): as the sequence (P19338 267-709 F663A) above, with A397F counted along it
Sequence of RRM-RGG F/A3 (P19338 267-709 F663A/F676A/F684A): as the sequence (P19338 267-709 F663A) above, with F410A, F418A counted along it

As to GGGGGGGGGG (ssDNA) [dG10], the binding result with nucleolin RRM [1] is “binds”.
Turning to GGGCGCGGGAGGAATTGGGCGGG (structured_DNA) [BCL-2], the dissociation constant Kd in the series with nucleolin RRM-RGG stood at 79.6 ± 4 nM; with nucleolin RRM [2] it was 73.6 ± 7.1 nM; in the series with RRM-RGG F/A2, 71.8 ± 6.9 nM; with RRM-RGG F/A1, 75.5 ± 9.5 nM; in the series with RRM-RGG F/A3, 172 ± 9.1 nM.
